Patent US20140223591A1

Columns and labels:
[1] = molecular target: Gonadotrophin releasing hormone 1 (GnRH1) (UniProt P01148); test: SPR, Biacore T200; antibody captured on goat anti-mouse IgG on a CM5 chip, GnRH injected in 2-fold dilutions from 1024 nM
[2] = molecular target: Gonadotrophin releasing hormone 1 (GnRH1) (UniProt P01148); test: SPR (Biacore T200): antibody captured on goat anti-mouse IgG immobilized on a CM5 chip, GnRH injected in 2-fold dilutions from 1024 nM
[3] = molecular target: Gonadotrophin releasing hormone 1 (GnRH1) (UniProt P01148); test: SPR

B1: HB-9094-HEK293T-IgG (antibody, V domains shown)
VH: QIQLVQSGPELKKPGETVKISCKASGYPFTNYGMNWVKQAPGKGLKWMGWINTYTGEPACADDFRGRFAISLETSARTAYLQINNLINEDTATYFCARTGGGRYNYGMDYWGQGTSVTVSS
VL: QIVLTQSPAIMSASPGEKVTITCSATSSVSYIHWFQQKPGTSPKLWIYSTSNLASGVPVRFSGSGSGTSYSLTISRMEAEDAATYYCQQRSSYPPTFGGGTKLEIKR
For B1, which Kd [1] is on record?
Its Kd is 0.918 nM.

And the koff [1]?
The koff was 0.000249 s⁻¹.

What about the kon [1] of the same binder?
The kon was 272000 M⁻¹ s⁻¹.

And the Kd [2]?
The Kd was 0.27 nM.

And the Kd [3]?
Its Kd is 0.918 nM.

And the koff [3]?
Its koff is 0.000249 s⁻¹.

What about the kon [3] of the same binder?
The kon was 272000 M⁻¹ s⁻¹.

B2: SMI41 ascites IgG (antibody, V domains shown)
VH: QVTLKESGPGILRPSQTLDLTCSFSGFSLSTSGLSVGWIRQPSGKGLEWLAHIWWDDVKYFNPSLKSRLTISKDSSRNQVFLKITSVDTADSATYHCTRGPLGHGFDYWGQGTLVTVSA
VL: DVVMTQTPLSLPVSLGDQAFISCRSSQSLVHSDGNSYLHWYLQKPGQSPKLLIYKVSNRFSGVPDRFSGSGSGTDFTLKISRVEAEDLGLYFCSQTTHVPWTFGGGTKLEIK
With B2 as the binder, how does the Kd [3] read?
The Kd was 0.819 nM.

And the koff [3]?
The koff was 0.00467 s⁻¹.

And the kon [3]?
The kon was 8.99e+06 M⁻¹ s⁻¹.

B3: SMI41-HEK293T-IgG (antibody, V domains shown)
VH: QVTLKESGPGILRPSQTLDLTCSFSGFSLSTSGLSVGWIRQPSGKGLEWLAHIWWDDVKYFNPSLKSRLTISKDSSRNQVFLKITSVDTADSATYHCTRGPLGHGFDYWGQGTLVTVSA
VL: DVVMTQTPLSLPVSLGDQAFISCRSSQSLVHSDGNSYLHWYLQKPGQSPKLLIYKVSNRFSGVPDRFSGSGSGTDFTLKISRVEAEDLGLYFCSQTTHVPWTFGGGTKLEIKR
What does the source list for B3?
Kd [1]: 0.592 nM; koff [1]: 0.00282 s⁻¹; kon [1]: 4.76e+06 M⁻¹ s⁻¹; Kd [3]: 0.592 nM; koff [3]: 0.00282 s⁻¹; kon [3]: 4.76e+06 M⁻¹ s⁻¹
